Assay results as given in article PMC11021501, “Insights into the inhibition of protospacer integration via direct interaction between Cas2 and AcrVA5” (Nature Communications, 2024).
Substitutions are numbered along the chain they refer to. Names and notes keep the numbering of the source.

T1: Treponema denticola Cas2 (Treponema denticola, UniProt Q73QW4 1-101)
T1 chain: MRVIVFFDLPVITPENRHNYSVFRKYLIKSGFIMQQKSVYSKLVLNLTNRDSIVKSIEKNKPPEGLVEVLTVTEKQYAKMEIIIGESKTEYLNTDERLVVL

B1: Treponema denticola Cas2 (natural protein)
chain: T1 chain
notes: Cas2 of Treponema denticola, type II-A CRISPR-Cas system; gene amplified and cloned into a modified pET32a vector with a precession enzyme cleavage site; A GST-tagged Cas2 (pGEX-6p-1, GST removed) was also made; Dimer by the crystal structure; also called Td-Cas2; WT-Cas2; not shown: Trx, N-terminal, cleaved
B2: AcrVA5-L5A (natural protein)
chain: MKIEASGGYICYSIEEDEVTIDMVEVTTKRQGIGSQLIDMVKDVAREVGLPIGLYAYPQDDSISQEDLIEFYFSNDFEYDPDDVDGRLMRWS
B3: Moraxella bovoculi AcrVA5 (natural protein)
chain: B2 chain with A5L
modifications: C-terminal His-tag left out; the vector-derived PLGS of 6IUF is dropped, so entity number = AcrVA5 number + 4

Experiments:
[1] = target: the molecule itself; assay: crystal structure; Cas2 with peptide at molar ratio 1:1.2, hanging drop, 15% PEG3350, 10% glycerol, 0.1 M Tris pH 6.4; 2.0 Å
Treponema denticola Cas2 [2] = target: T1, Treponema denticola Cas2; assay: ITC
[3] = target: Treponema denticola Cas2 (Treponema denticola) (UniProt Q73QW4); assay: ITC; AcrVA5 (400 µM) injected into 50 µM Cas2 in the sample cell, 25 °C, 20 mM Tris pH 7.4, 200 mM NaCl; also AcrVA5 mutants and AcrVA5 peptides with Cas2
Treponema denticola Cas2 [4] = target: B1; assay: as above; settings: both partners purified

## B1
[1]
  stoichiometry N: 2

## B2
Treponema denticola Cas2 [2]
  Kd: 1.06 µM
[3]
  Kd: 1.3 µM

## B3
Treponema denticola Cas2 [4]
  Ka: 939000 M⁻¹
  Kd: 1.1 µM
  dH: 4.23 ± 0.165 kcal/mol
  stoichiometry N: 0.596 ± 0.0158
